This is an account of results in patent US12077763B2, “RNA-based control of powdery mildew” (Greenlight Biosciences, Inc., priority 2021, dated 2024).

To fix the notation:
B1: GS1875: dsRNA trigger SEQ ID NO 168; gene target Mitochondrial RNA-splicing protein MRS3 (nucleic acid)
chain: AAAGCTCCAGCTGAGCAATGAGTAAGTGGATCGTAAGCCTTTGATGGGTTCAGAAATGTAGATACAGATTCGTATGCGAGAAGTTGAAGTGCTGTAAATGGTACAGTCATGGAAAGAGTAGTTGGATACGAGATATAGAAGGCTGTGATGCCTTCAGTGCGATAGATATAGCGGGCACAATCACTCAGTGATCTATAAATTTTGCGAGAGTTATGCATTTGCATTCTTTGCTTTATTACATCAAATGGGTTCATTAAAGCATCACTTGCAATTGTTGCGCATGCCCCACTTGTAATGCGCATGCCCCACTTGTAACTATGTAGCTTCAGTAAGTGCTCAATATCAAGGATAAATTGGCGATGTAGTCATATATGTCTGATTCCTTAATCAAAATTCTTAATACAGACCTGCTGCAATAGGATGATGAGCTCCTGTTTGATTACCTCCCATGAGATGTTTGACAGCTTCATAGGTTGCAAAATA
B2: GS1879: dsRNA trigger SEQ ID NO 142; gene target Chaperone-dependent E3 ubiquitin protein ligase (nucleic acid)
chain: CTGAATTTCTGAGTTCCGCTATCTTTTTATCTCTTCTTTCCTCAAGTCCGTATTGAAGTTCGTGAGATAATTTACTTCGATTCATCTCTCTTTTACTTTCTTGTGCCTCCCATCCCATTTTTTTACATTTCATCACTAACTCAGTTATTGGCTCTATACTGTTAGCCCCTTTTGTTCCTGCATACATCTCTTCCATACAAAATTTTCGCGCAGTCTTTGCAGATTGAAATGCCTCATCGTAATAATTTAGCGCCAGTTGTGCTTGGGCCAGTTGGAAATATGCTTTCATATTTGATGGGAGGAGACGTAAAGCGCATTGGGCATCTTCAATTACACGATGATGAAGAGATAATTTAAGAAGTACCATTGCACGATTTGTATAAAGTACTGGATTTTGGGGATCACAATTGATCGCTTTTGTGTAAAACATTTCAGCACGCGTATAATCACCAGACTTAAAATATTTATTTC
B3: GS3336: sprayed dsRNA for which activity had been shown by leaf assay; presumably listed in Table 1B (nucleic acid)
sense: AAUGAUGUAAGCUCCAUGGGAAUUCAUAACCUGAGUGAGCAUCAAUAGCUUGGAAUAGUCGACAGAUAAUCCAACAAUACAUCGUAACUAAGUGAAGAUUGCCAGUUAUCAGACACCAUACAGUUGGCAUUAAGACUGUUCCUGCGCCAAGAACCAUUGUUUCUAUUGGUGAAGCAUAUUCAGCUGCUAGUCCGAAGGGUGCAGAGUAAUGAUGAUGUAUUUUAUGAAUAUGUUUGUAGAAAGGACCCCAAUGAAAUAAUCGAUGCAUCCAAUAAUGCCACGUAUCUUCCAACACGAAAAAGAAAGCAAUCUGAAGACACAUAGUUUUUAAUGAUGGAAAUGGGACACCAACAUCCAUACCACAAGCCUUUGUCAAUGGAUGAAAAAGCCAAAUUUGA
antisense: UCAAAUUUGGCUUUUUCAUCCAUUGACAAAGGCUUGUGGUAUGGAUGUUGGUGUCCCAUUUCCAUCAUUAAAAACUAUGUGUCUUCAGAUUGCUUUCUUUUUCGUGUUGGAAGAUACGUGGCAUUAUUGGAUGCAUCGAUUAUUUCAUUGGGGUCCUUUCUACAAACAUAUUCAUAAAAUACAUCAUCAUUACUCUGCACCCUUCGGACUAGCAGCUGAAUAUGCUUCACCAAUAGAAACAAUGGUUCUUGGCGCAGGAACAGUCUUAAUGCCAACUGUAUGGUGUCUGAUAACUGGCAAUCUUCACUUAGUUACGAUGUAUUGUUGGAUUAUCUGUCGACUAUUCCAAGCUAUUGAUGCUCACUCAGGUUAUGAAUUCCCAUGGAGCUUACAUCAUU

For the first data set, the system named is E. necator. Put plainly: Leaf disc assay, dry inoculum (settling tower), decrease in disease severity / hyphal growth (Example 2). Particulars: decrease in disease severity (hyphal growth) relative to untreated control; time point 1 (untreated control hyphal growth ≥50%); value ± SE.
Regarding B1, the “% decrease =/− SE TP1” value came out at 55 ± 4%.

Turning to B2, the “% decrease =/− SE TP1” value is recorded as 49 ± 5%.

In the case of B3, the “% decrease =/− SE TP1” value was found to be 72 ± 2%.

Staying with this data set, now noted: decrease in disease severity (hyphal growth) relative to untreated control; time point 2; value ± SE.
Turning to B1, the “% decrease =/− SE TP2” value turned out to be 41 ± 5%.

Turning to B2, the “% decrease =/− SE TP2” value turned out to be 41 ± 7%.

Regarding B3, the “% decrease =/− SE TP2” value came to 57 ± 4%.

The subject of the next data set is GS1885, GS3336, GS1875, GS1879 transcripts. The data set can be described thus: Gene specific qRT-PCR of GS1885, GS3336, GS1875, GS1879 transcripts in leaf discs (Example 3). The data set is classed as in vivo, E. necator. As to conditions: six-days post inoculation, FIG. 4. As to the method: FIG. 4. Gene specific qRT-PCR analysis of GS1885, GS3336, GS1875, GS1879 transcripts at 6-dpi in leaf discs. The 2-ΔΔCT method was used to analyze the relative changes in gene expression. Gene expression was normalized to the untreated control. GS145 (a non-target dsRNA sequence) was also included as control. Asterisks denote significant differences compared to untreated control (UTC). Statistical comparisons between treatments were performed with ANOVA, followed by Welch's analysis.
qRT-PCR was performed to validate the effect of exogenous dsRNA on the expression of selected targeted genes for which activity of dsRNA had been shown by leaf assay (as described in Example 2). Samples were treated with dsRNA, inoculated after 24 hours and six leaf discs per treatment were collected at six-days post inoculation (dpi) for further analysis.
Take B1: the “gene silencing in E. necator by sprayed dsRNA / gene expression levels vs untreated control” value is listed as “Induced Gene Silencing”.

As to B2, the “gene silencing in E. necator by sprayed dsRNA / gene expression levels vs untreated control” value is reported as “Induced Gene Silencing”.

B3: the “gene silencing in E. necator by sprayed dsRNA / gene expression levels vs untreated control” value is “Induced Gene Silencing”.
